Reference: article PMC2888147

Target: His-tagged KCNE1 C-terminus (E1C) (human) (UniProt P15382)
Assay: SEC

His-tagged KCNE1 C-terminus (E1C) (from UniProt P15382 67-129) (domain or fragment)
stoichiometry N: 2
